# Results reported in IntAct's records for PubMed 25535969.
# B1: Lysine-specific demethylase 3A (Homo sapiens), Q9Y4C1 (parent)
# chain: MVLTLGESWPVLVGRRFLSLSAADGSDGSHDSWDVERVAEWPWLSGTIRAVSHTDVTKKDLKVCVEFDGESWRKRRWIEVYSLLRRAFLVEHNLVLAERKSPEISERIVQWPAITYKPLLDKAGLGSITSVRFLGDQQRVFLSKDLLKPIQDVNSLRLSLTDNQIVSKEFQALIVKHLDESHLLKGDKNLVGSEVKIYSLDPSTQWFSATVINGNPASKTLQVNCEEIPALKIVDPSLIHVEVVHDNLVTCGNSARIGAVKRKSSENNGTLVSKQAKSCSEASPSMCPVQSVPTTVFKEILLGCTAATPPSKDPRQQSTPQAANSPPNLGAKIPQGCHKQSLPEEISSCLNTKSEALRTKPDVCKAGLLSKSSQIGTGDLKILTEPKGSCTQPKTNTDQENRLESVPQALTGLPKECLPTKASSKAELEIANPPELQKHLEHAPSPSDVSNAPEVKAGVNSDSPNNCSGKKVEPSALACRSQNLKESSVKVDNESCCSRSNNKIQNAPSRKSVLTDPAKLKKLQQSGEAFVQDDSCVNIVAQLPKCRECRLDSLRKDKEQQKDSPVFCRFFHFRRLQFNKHGVLRVEGFLTPNKYDNEAIGLWLPLTKNVVGIDLDTAKYILANIGDHFCQMVISEKEAMSTIEPHRQVAWKRAVKGVREMCDVCDTTIFNLHWVCPRCGFGVCVDCYRMKRKNCQQGAAYKTFSWLKCVKSQIHEPENLMPTQIIPGKALYDVGDIVHSVRAKWGIKANCPCSNRQFKLFSKPASKEDLKQTSLAGEKPTLGAVLQQNPSVLEPAAVGGEAASKPAGSMKPACPASTSPLNWLADLTSGNVNKENKEKQPTMPILKNEIKCLPPLPPLSKSSTVLHTFNSTILTPVSNNNSGFLRNLLNSSTGKTENGLKNTPKILDDIFASLVQNKTTSDLSKRPQGLTIKPSILGFDTPHYWLCDNRLLCLQDPNNKSNWNVFRECWKQGQPVMVSGVHHKLNSELWKPESFRKEFGEQEVDLVNCRTNEIITGATVGDFWDGFEDVPNRLKNEKEPMVLKLKDWPPGEDFRDMMPSRFDDLMANIPLPEYTRRDGKLNLASRLPNYFVRPDLGPKMYNAYGLITPEDRKYGTTNLHLDVSDAANVMVYVGIPKGQCEQEEEVLKTIQDGDSDELTIKRFIEGKEKPGALWHIYAAKDTEKIREFLKKVSEEQGQENPADHDPIHDQSWYLDRSLRKRLHQEYGVQGWAIVQFLGDVVFIPAGAPHQVHNLYSCIKVAEDFVSPEHVKHCFWLTQEFRYLSQTHTNHEDKLQVKNVIYHAVKDAVAMLKASESSFGKP
# Variants of: B1
# Conditions: with STAT1, P42224-1
# Chain of STAT1, P42224-1 (P42224 whole entry): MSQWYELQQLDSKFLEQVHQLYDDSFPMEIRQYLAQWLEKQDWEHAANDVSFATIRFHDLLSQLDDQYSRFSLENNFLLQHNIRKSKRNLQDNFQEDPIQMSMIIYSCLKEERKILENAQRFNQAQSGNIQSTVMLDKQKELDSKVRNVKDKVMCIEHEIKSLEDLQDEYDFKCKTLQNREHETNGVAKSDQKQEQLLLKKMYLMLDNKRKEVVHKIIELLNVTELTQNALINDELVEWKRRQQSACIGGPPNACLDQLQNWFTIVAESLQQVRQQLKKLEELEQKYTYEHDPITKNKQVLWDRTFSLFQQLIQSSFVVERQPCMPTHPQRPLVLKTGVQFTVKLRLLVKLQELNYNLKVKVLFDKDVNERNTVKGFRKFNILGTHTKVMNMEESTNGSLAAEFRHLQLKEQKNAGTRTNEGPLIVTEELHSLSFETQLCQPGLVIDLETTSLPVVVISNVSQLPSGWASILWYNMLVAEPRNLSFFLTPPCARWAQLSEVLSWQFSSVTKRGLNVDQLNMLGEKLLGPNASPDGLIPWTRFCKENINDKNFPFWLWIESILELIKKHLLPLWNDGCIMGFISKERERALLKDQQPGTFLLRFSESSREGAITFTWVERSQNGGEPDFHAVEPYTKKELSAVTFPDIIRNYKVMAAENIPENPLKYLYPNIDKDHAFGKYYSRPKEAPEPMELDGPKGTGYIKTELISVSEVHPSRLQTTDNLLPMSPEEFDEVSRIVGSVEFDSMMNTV
row,Variant,effect of a mutation on the interaction
1,S264A,disrupting interaction strength
